The values that follow come from US20210147572A1, “ANTIBODIES AND METHODS OF USE THEREOF” (AbeXXa Biologics, Inc., priority 2017, published 2021).

For experiment [1], the target named is T1, HLA-E molecules expressed in PDX lung tumor tissue (Homo sapiens, UniProt P13747).
T1 construct: tissue Crown Biosciences PDX model LU5139; host or cells: patient-derived xenograft lung tumour tissue
The experiment in a line: LC/MS/MS validation of peptides eluted from HLA-E of PDX lung tumor tissue. The settings on record: PDX model LU5139, HLA-E affinity column 4D12. The procedure:
FIG. 6 exemplifies a validation strategy used for cancer specific HLA-E-peptide targets. 1) Snap-frozen tumor tissue isolated from patient-derived xenograft (PDX) models, patient biopsies or freshly isolated hematological cancer cells are stored frozen in liquid nitrogen. 2) Sample of material is isolated and resuspended in 5 to 10 ml of lysis buffer and homogenized for 10 seconds on ice. After lhr incubation on ice, the sample is centrifuged for 20 min at 40,000 g. 3) An affinity column is prepared using antibody 4D12 or another antibody to HLA-E. The purified anti-HLA-E antibodies are coupled to a CN-Br-activated sepharose beads. The clarified supernatant is then applied to the affinity column. The column is washed with PBS, followed by a second wash with water and the sample eluted with 0.1M glycine pH 3.0. 4) Collected sample is immediately neutralized with addition of NH4HCO3. […]
PDX lung tumor tissue was purchased from Crown Biosciences and used for extraction of HLA-E-peptide complexes. […] An aliquot of sample supernatant was removed and protein concentration was determined by BCA assay. […]
Peptide mixture samples underwent solid-phase extraction cleanup with an Oasis HLB elution plate (Waters) and the resulting samples were analyzed by LC/MS/MS, using an Orbitrap Fusion Lumos mass spectrometer (Thermo Electron) coupled to an UltiMate™ 3000 RSLC-Nano liquid chromatography system (Dionex). […]

The target in another experiment is HLA-E*0103 (Homo sapiens, UniProt P13747). The experiment in a line: HLA-E*0103 peptide binding and refolding into monomer. Format: biochemical.
For experiment [2], the target named is T2, HLA-E*0103 extracellular domain with beta-2-microglobulin (recombinant, before peptide loading) (human). The experiment in a line: peptide binding and refold into monomer complex.
Experiment [3] addresses T2, HLA-E*0103 extracellular domain with …. The experiment in a line: in vitro refold, Superdex 75 size exclusion. A general note: In gel filtration, larger molecules generally elute earlier.

For the molecule GLADKVYFL, the “Peptide detected in lung PDX tissue by LC/MS/MS” value in experiment [1] was “isolated from HLA-E molecules expressed in PDX lung tumor tissue”.

For the molecule YLLPAIVHI [RNA Helicase p68 peptide], the “HLA-E*0103 peptide binding, refold into stable monomer complexes” value on HLA-E*0103 is “successfully refold HLA-E*0103/peptide into stable monomer complexes”.

As to YLLPAIVHI [peptide YLLPAIVHI (RNA Helicase p68)], the binding result in experiment [2] was “binds”.

Consider GLADKVYFL [peptide GLADKVYFL (CAD protein)], for which the binding result in experiment [3] is “binds”.
